Here are results for one molecule from PMC7671478, “Structure of the helicase core of Werner helicase, a key target in microsatellite instability cancers”.

This data set has as its target WRN helicase core (531-950), lacking the WH domain (Homo sapiens, UniProt Q14191 531-950). Kind of data set: HDX-MS; protein:ssDNA 1:2.5, no nucleotide analogue added; protection of D2 hairpin/motif IV peptide only after 4 h labelling; HDX-MS: WRN stock 16.66 uM in 15 mM Hepes, 150 mM NaCl, pH 7.3; 2 min equilibration with ligand, then 16-fold dilution into deuterated buffer, room temperature, 10 s to 4 h. The settings on record: protein: recombinant; tags: N-terminal His-Zbasic tag, TEV-cleaved; single strand.

Sequence of WRN helicase core (531-950), lacking the WH domain (Q14191 531-950): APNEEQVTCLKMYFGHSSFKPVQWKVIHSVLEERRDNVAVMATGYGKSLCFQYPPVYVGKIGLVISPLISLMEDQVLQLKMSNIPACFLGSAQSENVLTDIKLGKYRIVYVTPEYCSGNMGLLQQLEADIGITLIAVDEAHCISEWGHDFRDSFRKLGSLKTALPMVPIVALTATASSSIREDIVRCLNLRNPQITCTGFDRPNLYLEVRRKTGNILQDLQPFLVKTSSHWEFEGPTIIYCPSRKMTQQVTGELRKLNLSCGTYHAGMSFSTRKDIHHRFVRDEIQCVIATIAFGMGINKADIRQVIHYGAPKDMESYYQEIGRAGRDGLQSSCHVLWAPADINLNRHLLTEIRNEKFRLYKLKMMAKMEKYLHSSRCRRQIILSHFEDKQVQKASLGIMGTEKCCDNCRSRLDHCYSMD

CCAGGTCGATAGGTTCGAATTGGTT (ssDNA) [25-nt ssDNA]: the binding result is given as “binds”.
